These results are taken from patent US20170145086A1 (VISTERRA, published 2017).

The target in assay [1] is T1, HA-GCN4 hAPRIL (amino acid residues 105-250) (human, UniProt O75888 105-250).
T1 construct: Bought (R&D Systems); also called HA-tagged GCN4 human APRIL; HA-GCN4-huAPRIL; not shown: N-terminal HA tag; GCN4 isoleucine zipper oligomerization domain
T1 sequence: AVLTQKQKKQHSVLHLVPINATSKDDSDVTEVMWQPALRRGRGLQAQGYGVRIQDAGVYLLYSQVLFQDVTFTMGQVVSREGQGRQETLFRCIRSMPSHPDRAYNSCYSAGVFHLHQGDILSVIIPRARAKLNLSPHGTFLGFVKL
Kind of assay: blocking ELISA; blocked: human APRIL binding to human TACI-Fc. The arrangement: concentration or dose not given beside the values. As for the experimental part:
(§1) FIGS. 19A-19B depict the antibody inhibition of APRIL binding to TNFSF receptors TACI (FIG. 19A) and BCMA (FIG. 19B). Assay is based on blocking ELISA using recombinant human APRIL (R&D Systems) and Human TACI-Fc. Inhibition was analyzed by non-linear regression using a four parameter fit.
(§2) Recombinant TACI-Fc or BCMA-Fc was coated on 96 well plates in 0.1 M carbonate-bicarbonate buffer (pH 9.6), overnight at 4° C. Plates were washed three times with 1×PBST (PBS+0.025% Tween 20) followed by blocking with 1% BSA in 1×PBS, 37° C. for 1 hour. All subsequent wash steps were carried out with 1×PBST. To assess antibody blocking, either 15 ng/mL or 50 ng/mL HA-GCN4-huAPRIL was preincubated with varying antibody concentrations ranging from 0.03-30 μg/mL in binding buffer comprised of 1% BSA and 0.025% Tween-20 in 1×PBS. Preincubation was carried out at 30° C. for 1 hour with mixing. Antibody-APRIL premix with 50 ng/mL APRIL or 15 ng/mL APRIL was then added to TACI-Fc coated or BCMA-Fc coated plates, respectively, and incubated for an additional hour at 30° C. HA-tagged APRIL binding to either receptor was quantified using a goat polyclonal anti-HA tag-HRP antibody (Abcam) added at a 1:10000 dilution followed by colorimetric development using 100 μl/well of freshly prepared TMB substrate (KPL) carried out for up to 30 minutes at room temperature before quenching enzymatic reaction by the addition of 1N sulfuric acid. ELISA signal was quantified by absorbance at 450 nm. ELISA data was analyzed by non-linear regression. IC₅₀ values were calculated based on a 4 parameter fit of antibody titration curves. […] Non-blocking antibodies Aprly-1 or Aprly-5 (Enzo Biosciences) were used as negative controls. Mouse specific, blocking antibody aprily-1-1 (Adipogen) was generally used as a positive control in experiments using mouse APRIL (HA-GCN4-mAPRIL).

Assay [2] deals with T1, HA-GCN4 hAPRIL (amino acid residues …). Kind of assay: blocking ELISA, 4-parameter fit; blocked: human APRIL binding to human BCMA-Fc. As for the experimental part: as §1, §2
A general note: ELISA stands for enzyme-linked immunosorbent assay.

Assay [3] shares this target. In words: blocking ELISA, 4-parameter fit; blocked: human APRIL binding to human TACI-Fc. The method, then: as §1, §2
The target in assay [4] is human LIGHT (TNFSF14, Adipogen) (human, UniProt O43557 89-240, limits assumed). In words: indirect ELISA, cytokine coated. The method, then: (§3) Selected anti-APRIL antibodies were evaluated for potential cross-reactivity with other members of the TNFa superfamily (TNFSF) family of cytokines, including: human TNFα (TNFSF2; Adipogen), human […] (TNFSF4, Adipogen), human FasL (TNFSF6, Adipogen), human TRAIL (TNFSF10, Adipogen), human RANKL (TNFSF11; Adipogen), human Tweak (TNFSF12; Abcam), human and mouse BAFF (TNFSF13B, AB Biosciences and Adipogen, respectively), and human LIGHT (TNFSF14, Adipogen). These cytokines share variable degree of sequence as well as higher order structural homologies. Among them, BAFF appears to be the most closely related to APRIL, with 29% identity and 53% amino acid sequence similarity.
human LIGHT (TNFSF14, Adipogen), sequence (O43557 89-240 limits assumed): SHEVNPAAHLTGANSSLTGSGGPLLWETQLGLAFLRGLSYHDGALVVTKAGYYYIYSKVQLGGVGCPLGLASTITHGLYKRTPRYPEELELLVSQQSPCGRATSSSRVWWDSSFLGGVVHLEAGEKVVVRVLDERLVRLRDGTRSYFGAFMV
(§4) Binding was evaluated by an indirect ELISA protocol using similar methods described for evaluation of APRIL binding; cytokines were immobilized to ELISA plate at 50 ng per well and then exposed to a solution of each of the test antibodies at a fixed concentration of 10 μg/ml Anti-human or anti-mouse Ig-HRP polyclonal antibody conjugates (Jackson Laboratories) were used for detection of antibody binding. The results presented in FIG. 36 indicated eleven of the twelve antibodies tested in this assay to specifically bind APRIL with no measurable cross-reactivity with the other TNFSF members substantially above assay background.

Assay [5] addresses T2, human FasL (TNFSF6, Adipogen) (human, UniProt P48023 103-281, limits assumed).
T2 sequence (looked up): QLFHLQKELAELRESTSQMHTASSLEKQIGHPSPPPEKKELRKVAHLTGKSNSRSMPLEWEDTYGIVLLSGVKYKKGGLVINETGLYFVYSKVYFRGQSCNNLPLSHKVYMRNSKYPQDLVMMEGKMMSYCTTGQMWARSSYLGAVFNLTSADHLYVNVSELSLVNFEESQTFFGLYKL
Kind of assay: indirect ELISA, cytokine coated. The method, then:
as §3, §4

The target in assay [6] is T1, HA-GCN4 hAPRIL (amino acid residues …). Kind of assay: indirect ELISA on human APRIL; column head prints IC50 (pM), legend paragraph 725 calls the values EC50. An excerpt:
Purified antibodies were further characterized for APRIL binding, APRIL species cross reactivity (human APRIL vs. mouse APRIL), and receptor blocking activity using TACI-Fc. For binding, an APRIL-based indirect ELISA was used to determine by first approximation the relative affinity of purified anti-APRIL antibodies to either human APRIL or mouse APRIL. ELISA method was as generally described above. […] Blocking and wash steps were completed as described. Binding of anti-APRIL antibodies to APRIL was quantified using an 8 point dilution of test antibody that spanned over a four log scale. Antibody binding to APRIL was detected using a rabbit anti-mouse IgG (H+L)-HRP conjugate (Jackson ImmunoResearch Laboratories). Antibody binding data was analyzed by non-linear regression analysis using a 3 parameter fit to determine max binding and apparent EC₅₀ values. […] Mouse specific antibody Apry-1-1 (Adipogen) was likewise used for quantification of antibody binding to mouse APRIL.

Assay [7] has the same target. Kind of assay: blocking ELISA; blocked: human APRIL binding to human BCMA-Fc. The arrangement: concentration or dose not given beside the values. The method, then: as §1, §2

B1: monoclonal antibody 3631 (antibody, V domains shown)
VH: EIQLQQSGPELVKPGASVKVSCKASGYSFTDYNIYWVKQSHGKSLEWIGYIDPSNGGPGYNQKFRGKATLTVDKSSSTAFLHLNSLTSEDSAVYYCARRDNYGSGTMDYWGQGTSVTVSS
VL: DIVMTQSQKFMSTSVGDRVSITCKASQNVGTDVSWYQQKPGKSPKPLIYWASNRFTGVPDRFIGSGSGTDFTLTISNVQSEDLADYFCEQYSIYPLTFGAGTKLELK
notes: mouse-derived
Usually % Inhibition stands for how much of the control response was suppressed. A word on the IC50: it is the concentration that inhibits the measured activity by half. The EC50 is the concentration that produces a half-maximal response. B1: the “% Inhibition” value worked out at 63% in assay [1] and 100% in assay [7]. For the same molecule, the IC50 in assay [2] was found to be 0.48 nM; in assay [3], 0.27 nM. For the same molecule, the binding result in assay [4] and in assay [5] was “no binding (tested: 10 µg/ml (p-1128))” in each case. Further, it took 0.0166 nM to reach a half-maximal effect in assay [6] (EC50).

B2: monoclonal antibody 3732 (antibody, V domains shown)
VH: EIQLQQSGPELVKPGASVKVSCKASGYSFTDDNMYWVKQSHGKSLEWIGYIDPLNGGTGYNQKFKGKATLTVDKSSSTAFLHLNSLTSEDSAVYYCARRDNYATGTMDYWGQGTSVTVSS
VL: DIVMTQSQKFMSTSVGDRVSITCKASKNVGTDVSWYQQKPGKSPKPLIYWASNRFTGVPDRFTGSGSGTDFTLTINNVQSEDLADYFCEQYSSYPLTFGAGTKLELK
notes: mouse-derived
As for B2, the IC50 in assay [2] was found to be 0.22 nM. The binding result in assay [4] and in assay [5] was “no binding (tested: 10 µg/ml (p-1128))” in each case. This molecule also yielded an EC50 in assay [6] of 0.0072 nM. Besides, in assay [7], the “% Inhibition” value amounted to 100%.

B3: monoclonal antibody 2218 (antibody, mouse IgG2, V domains shown)
VH: DVQLQESGPGLVKPSQSLSLTCSVTGYSITSGYYWNWIRQFPGNKLEWMGYISYDGYNNYNPSLKNRISITRDTSKNQFFLKLNSVTTEDTATYYCANYYDYEDWYFGVWGTGTTVTVSS
VL: DIVLTQSPASLAMSLGKRATISCRASESVSIIGTNSIHWYQQKPGQPPKLLIYHASNLETGVPARFSGSGSRTDFTLTIDPVEEDDVAIYYCLQSRKIPYTFGGGTKLEIK
Regarding B3, the “% Inhibition” value came to 40% in assay [1] and 99% in assay [7]. In addition, the values for the IC50 in assay [2] and in assay [3] were 0.31 nM and 0.98 nM, respectively. Further, the binding result in assay [4] and in assay [5] was “no binding (tested: 10 µg/ml (p-1128))” in each case. In assay [6], this molecule returned an EC50 of 0.005 nM.

B4: 4237 (antibody, V domains shown)
VH: QAHLKESGPGLVAPSQSLSITCTVSGFSLTDYDVHWVRQSPGKGLEWLGVIWNDGSTDYNTAFISRLTISKDNSKSQVFFKMNSLQADDTAIYYCARNWYGGYWFAYWGQGTLVTVSA
VL: DIQMTQSPASLSASAGETVTITCRSSENIYSYLAWYQQKQGKSPQLLVYNANALAEGVPSRFSGSGSVTQFSLKINSLQPEDFGSYYCQHHYGTPFTFGSGTKLEIK
notes: also called monoclonal antibody 4237
Consider B4, for which the “% Inhibition” value in assay [1] was determined as 95%; in assay [7], 93%. For the same molecule, the IC50 in assay [2] is 0.56 nM; in assay [3], 0.9 nM. Besides, the binding result in assay [4] and in assay [5] was “no binding (tested: 10 µg/ml (p-1128))” throughout. Besides, in assay [6], the EC50 was 0.0126 nM.

B5: monoclonal antibody 4540 (antibody, V domains shown)
VH: QVQLQQSGPELVKPGASVKISCKASGYTFADYYINWVKQRPGQGLEWIGWIFPGSGSTYYNEKFKGKATLTVDKSSSTAYMLLSSLTSEDSAVYFCARGDSGRAMDYWGQGTSVTVSS
VL: DIQMTQSPSSLSASLGGKVTITCKASQDINKYIAWYQHKPGKGPRLLIHYTSTLQSGIPSRFSGSGSGRDYSFSISNLEPEDNATYYCLQYDNLLTFGAGTKLELK
notes: mouse-derived
For the molecule B5, the “% Inhibition” value in assay [1] amounted to 65%; in assay [7] it was 98%. The IC50 in assay [2] was determined as 0.66 nM; in assay [3], 1.01 nM. In addition, the binding result in assay [4] and in assay [5] was “no binding (tested: 10 µg/ml (p-1128))” throughout. In addition, the EC50 in assay [6] was determined as 0.0129 nM.

B6: monoclonal antibody 3833 (antibody, V domains shown)
VH: QVQLQQSGAELVRPGTSVKMSCKAAGYTFTNYWIGWVKQRPGHGLEWIGDIYPGGIGGGYTKYNEKFKGKATLTADTSSSTAYMQLGSLTSEDSAIYFCSRSETGRAMDYWGQGTSVTVSS
VL: DIQMTQSPSSLSASLGGKVTITCKASQDINKYIAWYQHKPGKGPRLLIHYTSTLKPGIPSRFSGSGSGRDYSFSISDLEPEDIATYYCLQYDNLNTFGGGTKLEIK
notes: mouse-derived
For the molecule B6, the “% Inhibition” value in assay [1] came to 72%; in assay [7] it was 96%. The IC50 in assay [2] amounted to 2.7 nM; in assay [3], 2.25 nM. The binding result in assay [4] was “no binding (tested: 10 µg/ml (p-1128))”. In assay [6], this molecule returned an EC50 of 0.0175 nM.

B7: monoclonal antibody 3530 (antibody, mouse IgG2, V domains shown)
VH: QVQLQQSGAELVRPGASVKLSCKASGYTFTDHEMHWVRQTPVHGLEWIGVIDPDTGDTTYNQKFKGKATLTADKSSSTAYMDLRSLTSEDSAVFYCTRWTGGDYWGHGTTLTVSS
VL: DAVMTQTPLSLSVTIGQPASISCKSSQSLLYSDGKTYLNWFQQRPGQSPKRLMYQVSKLDPGIPDRFSGSGSETDFTLKISRVEAEDLGVYYCLQGTYYPYTFGSGTKLEIK
As for B7, the results for the “% Inhibition” value in assay [1] and in assay [7] were 89% and 37%, respectively. Also, the IC50 in assay [2] stood at 0.48 nM; in assay [3], 2.9 nM. The binding result in assay [4] and in assay [5] was “no binding (tested: 10 µg/ml (p-1128))” each time. In assay [6], this molecule yielded an EC50 of 0.0489 nM.
